Source: patent publication US7022489 (dated 2006)

T1: rat GALR3 (rat)
T1 chain: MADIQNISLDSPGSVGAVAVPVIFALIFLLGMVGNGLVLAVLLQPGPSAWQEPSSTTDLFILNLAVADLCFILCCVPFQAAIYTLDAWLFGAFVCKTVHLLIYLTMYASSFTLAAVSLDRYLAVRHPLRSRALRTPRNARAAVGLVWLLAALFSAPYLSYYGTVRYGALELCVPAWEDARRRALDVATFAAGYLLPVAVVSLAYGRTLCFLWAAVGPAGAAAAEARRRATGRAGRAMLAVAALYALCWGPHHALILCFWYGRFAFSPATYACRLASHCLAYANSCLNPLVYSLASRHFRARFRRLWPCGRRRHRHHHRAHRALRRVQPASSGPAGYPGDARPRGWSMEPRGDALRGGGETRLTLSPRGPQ

T2: human GALR3 (human)
T2 chain: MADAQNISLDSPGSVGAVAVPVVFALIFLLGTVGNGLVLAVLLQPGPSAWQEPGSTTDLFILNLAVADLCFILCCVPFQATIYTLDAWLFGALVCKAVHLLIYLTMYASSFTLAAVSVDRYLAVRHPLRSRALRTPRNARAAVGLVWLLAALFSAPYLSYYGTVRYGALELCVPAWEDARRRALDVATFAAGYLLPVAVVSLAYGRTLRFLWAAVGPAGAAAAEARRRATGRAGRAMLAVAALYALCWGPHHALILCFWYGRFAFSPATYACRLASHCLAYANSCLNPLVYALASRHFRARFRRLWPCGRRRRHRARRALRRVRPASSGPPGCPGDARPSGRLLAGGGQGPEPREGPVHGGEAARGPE


Assays:
rat GALR3 [1] = biological target: T1, rat GALR3; assay: competition, 293-rGalR3-105
rat GALR3 [2] = biological target: T1, rat GALR3; assay: competition, COS-7
human GALR3 [3] = biological target: T2, human GALR3; assay: competition
rat GALR3 [4] = biological target: T1, rat GALR3; assay: competition
rat GALR3 [5] = biological target: T1, rat GALR3; assay: competition
human GALR3 [6] = biological target: T2, human GALR3; assay: other, 125I-galanin saturation, L-hGalR3-228 membranes
rat GALR3 [7] = biological target: T1, rat GALR3; assay: other, 125I-galanin saturation, COS-7 membranes

Ki (rat GALR3 [1]) [nM] | Ki (rat GALR3 [2]) [nM] | Ki (human GALR3 [3]) [nM] | Ki (rat GALR3 [4]) [nM] | Ki (rat GALR3 [5]) [nM] | Kd (human GALR3 [6]) [nM] | Kd (rat GALR3 [7]) [nM] | Binder
> 1000 | > 1000 | > 1000 | > 1000 | > 1000 |  |  | D-Trp2-galanin 1-29 (protein, D-Trp at position 2, mature numbering) KRGWTLNSAGYLLGPHAIDNHRSFHDKYGLAGKRELEPEDEARPGGFDRLQSEDKAIRTIMEFLAFLHLKEAGALGRLPGLPSAASSEDAGQS
 |  |  |  |  | 2.57 | 0.34 | porcine galanin (protein) KRGWTLNSAGYLLGPHAIDNHRSFHDKYGLAGKRELEPEDEARPGGFDRLQSEDKAIRTIMEFLAFLHLKEAGALGRLPGLPSAASSEDAGQS
